Key:
[1] = biological target: lysozyme from egg white (chicken, UniProt P00698 19-147); assay: pull-down from egg white on aptamer-functionalized magnetic nanoparticles, SDS-PAGE; 113 +/- 4.2 mg/g from egg white; Adsorption optimum: 4.0 mg/mL lysozyme, 60 min, pH 9.0, 37 C, 0 M NaCl; egg white: mixed 1:1 with 20 mM PBS pH 7.2-8.0, 10 mg NPs per mL, 37 C, 60 min; settings: protein: native
[2] = biological target: lysozyme (chicken (Gallus gallus)?, UniProt P00698 19-147); assay: pull-down on aptamer-functionalized magnetic nanoparticles (adsorption, A280); capacity 460 +/- 3.4 mg/g at pH 9.0, 37 C, 0 M NaCl; bare Fe3O4 218.39 and NH2-Fe3O4 211.35 mg/g, so part is non-aptamer adsorption; Adsorption optimum: 4.0 mg/mL lysozyme, 60 min, pH 9.0, 37 C, 0 M NaCl; egg white: mixed 1:1 with 20 mM PBS pH 7.2-8.0, 10 mg NPs per mL, 37 C, 60 min; settings: protein: commercial
lysozyme, sequence (P00698 19-147): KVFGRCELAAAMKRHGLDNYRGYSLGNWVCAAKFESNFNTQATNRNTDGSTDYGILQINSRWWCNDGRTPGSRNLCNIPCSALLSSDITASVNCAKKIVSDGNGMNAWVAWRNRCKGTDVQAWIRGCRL

lysozyme from egg white, sequence (P00698 19-147): as above

## TTTTTTATCAGGGCTAAAGAGTGC (ssDNA, 5'-aldehyde, coupled as imine to NH2-Fe3O4 nanoparticles) [lysozyme aptamer]
[1]
  binding result: binds
[2]
  binding result: binds

Reference: article PMC6406557, “Lysozyme Aptamer-Functionalized Magnetic Nanoparticles for the Purification of Lysozyme from Chicken Egg White”
